From the supplement of paper PMC10567573

B1: SPSB4 (parent)
chain: LDMDEGTLSFIVDGQYLGVAFRGL
B2: VENTX (parent)
chain: VFQHHQYLSPLERKRLAREMQLSE

Variants of: B1
Experiment: protein stability index of a GFP-peptide fusion (GPS, HEK-293T) (PSI 1-6); higher = more stable
Details: c terminus: a fixed tail appended
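Also: lentivirally expressed fusions sorted by FACS into six bins by GFP to DsRed ratio, PSI derived from sequencing read proportions per bin multiplied by bin number.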

Protein stability index, by site and new letter:
D2: P 2.26, T 3.9, V 2.35, I 2.56, E 2.68, Q 1.65, H 2.12, R 2.74, S 2.1, K 1.64, M 2.62, W 2.23, L 2.87, A 2.04
L1: C 3.04, V 2.51, A 1.83, K 1.27, I 2.59, T 1.86, E 1.66, M 2.75, N 1.28, F 2.48, Q 1.53, H 2.12, P 1.96, D 1.31, S 1.71, G 1.65, R 2.09, W 2.76, Y 1.32

Variants of: B2
Experiment: as above
Details: c terminus: a fixed tail appended

Protein stability index: each site, then its substitutions
M20: I 2.39, C 3.43, V 2.29, F 2.04, K 2.54, E 3.28, W 1.67, R 3.25, L 2.75, T 2.36, S 2.62, D 3.1, H 2.57, N 2.53, G 2.71, P 2.78, Q 2.6, A 2.8, Y 2.96
A17: Y 3.02
E19: N 3.28, R 2.38, Q 3.09, V 1.91, F 1.76, L 1.81, I 1.86, W 1.91, G 2.06, T 2.16, A 2.08, C 1.91, S 2.42, Y 1.91, M 1.78, D 2.67, K 1.94, H 2.17, P 2.44
S23: G 2.5, E 3.23, W 2.04, Q 3.04, D 2.66, A 3.5, R 2.33, Y 2.42, M 2.4, V 2.18, K 2.22, I 1.97, F 2.98, N 2.25, L 2.84, T 2.44, C 2.41, P 2.78, H 2.37
E24: A 2.14, V 1.39, T 2.27, Q 2.5, W 2.76, M 2.39, C 1.82, G 2.3, R 1.95, K 2.29, F 1.93, H 2.47, I 2.23, S 2.65, L 2.07, N 2.37, P 2.1, D 2.48, Y 2.07
R18: A 2.28, T 2.9, G 2.68, K 2.65, E 2.8, I 2.67, M 2.21, D 2.77, S 3, L 2.33, F 2.21, N 2.34, Q 2.73, Y 2, H 2.74, W 2.21, P 2.13, C 2.58, V 1.63
Q21: L 2.59, K 2.66, V 2.44, R 2.99, T 2.49, S 2.77, M 2.06, D 3.61, P 2.64, Y 3.06, E 2.54, H 2.68, F 1.98, A 2.49, W 2.43, N 2.29, I 2.32, C 2.5, G 2.51
L22: P 2.68, K 3.62, R 2.44, I 1.93, N 3.04, A 2.72, H 2.93, F 1.83, Y 2.17, E 2.85, Q 2.38, M 2.42, C 2.84, W 1.96, G 1.89, S 2.56, D 3.29, T 3.12, V 2.27
